# Source: US20050095613
# T1: DEVD peptide substrate
# T1 chain: DEVD
# T2: DQMD peptide substrate
# T2 chain: DQMD
# T3: LEHD peptide substrate
# T3 chain: LEHD
# T4: WEHD peptide substrate
# T4 chain: WEHD
# B1: human CARD-13 (protein)
# chain: MADKKPSKEDPVNMVKLLARNVLDGILDDLMENNVLNTEELRNLGKGLNFMVNNAGNLVDNITEKAQMAGKILKDRLLSHPKQLSLEYQRESEDQESEESSASSSSSTESEEENEESKDEERAASAHSMAVPPTGLPRWWQAASKMAADHFQDGGEPRVLCPGVPGLTDSKERNLGPCAPLEIQGAQPSGRLKLCPHAHFRELKTKRADEIYPVMEKEGRTRLALIICNKEFHYLLNRNGSELDLLGMQDLLETLGYSVVIEENLTAQEMETALRQFAARPEHQSSDSTSLVFMSHGILNGICGTKHWDQEPDVLHDDTIFEIFNNRNCRSLRDKPKVIIMQACRGSGAGIVWFTTDSGKASAETHGQLLQSSICNDAVTKAHVEKDFIAFKSSTPHNVSWRHEISGSVFISQIIYYFKEYSWSHHLEEIFRKVQRSFETPNVVTQLPTIERLSMTRYFYLFPGN
# Columns and labels:
# DEVD peptide substrate = target: T1, DEVD peptide substrate
# DQMD peptide substrate = target: T2, DQMD peptide substrate
# LEHD peptide substrate = target: T3, LEHD peptide substrate
# WEHD peptide substrate = target: T4, WEHD peptide substrate
protein,measurement,setting,value
B1,cleavage of peptide substrate (caspase activity),DEVD peptide substrate,it did not cleave DEVD peptide substrate or DQMD peptide substrate
same,cleavage of peptide substrate (caspase activity),DQMD peptide substrate,it did not cleave DEVD peptide substrate or DQMD peptide substrate
same,cleavage of peptide substrate (caspase activity),LEHD peptide substrate,It also had some activity against LEHD peptide substrate
same,cleavage of peptide substrate (caspase activity),WEHD peptide substrate,"This purified CARD-13 cleaved WEHD peptide substrates, as does caspase-1"
